Source: article PMC10457294 (2023)

Legend:
Assay in all cases: BLI
[1] = biological target: T1, MPXV M2 (monkeypox virus M2 protein), His-tagged, wild type (monkeypox virus (Clade I), UniProt Q8V554 18-220)
[2] = biological target: T2, CPXV M2 (cowpox virus M2), recombinant, His-tagged (cowpox virus, UniProt Q8QN22 18-220)
T2 chain: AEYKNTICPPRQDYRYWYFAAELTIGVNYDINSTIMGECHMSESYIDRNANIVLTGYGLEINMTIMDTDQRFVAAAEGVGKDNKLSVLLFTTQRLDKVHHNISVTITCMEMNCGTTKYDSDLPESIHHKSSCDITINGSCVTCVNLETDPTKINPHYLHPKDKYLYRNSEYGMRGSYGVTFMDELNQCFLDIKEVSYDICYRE

[3] = biological target: T1, MPXV M2 (monkeypox virus M2 protein), …; remark: listed apart in the source
[4] = biological target: T2, CPXV M2 (cowpox virus M2), recombinant, …
[5] = biological target: MPXV Bio-M2 (site-specifically biotinylated MPXV Avi-M2) (monkeypox virus (Clade I), UniProt Q8V554 18-220)

Row | Binder | koff [1] [s⁻¹] | koff [2] [s⁻¹] | Kd [3] [nM] | Kd [4] [nM] | koff [5] [s⁻¹]
1 | mouse B7.1 ectodomain fused to human Fc (Fc fusion) VDEQLSKSVKDKVLLPCRYNSPHEDESEDRIYWQKHDKVVLSVIAGKLKVWPEYKNRTLYDNTTYSLIILGLVLSDRGTYSCVVQKKERGTYEVKHLALVKLSIKADFSTPNITESGNPSADTKRITCFASGGFPKPRFSWLENGRELPGINTTISQDPESELYTISSQLDFNTTRNHTIKCLIKYGDAHVSEDFTWEKPPEDPPDSK | 2.92e-05 | 0.000109 | 0.243 | 1.48 | 
2 | mouse B7.2 ectodomain fused to human Fc (Fc fusion) VSVETQAYFNGTAYLPCPFTKAQNISLSELVVFWQDQQKLVLYEHYLGTEKLDSVNAKYLGRTSFDRNNWTLRLHNVQIKDMGSYDCFIQKKPPTGSIILQQTLTELSVIANFSEPEIKLAQNVTGNSGINLTCTSKQGHPKPKKMYFLITNSTNEYGDNMQISQDNVTELFSISNSLSLSFPDGVWHMTVVCVLETESMKISSKPLNFTQEFPSPQTYWKE | 0.689 | 0.000363 | 13600 | 8 | 
3 | human B7.2 ectodomain, His-tagged (domain or fragment) LKIQAYFNETADLPCQFANSQNQSLSELVVFWQDQENLVLNEVYLGKEKFDSVHSKYMGRTSFDSDSWTLRLHNLQIKDKGLYQCIIHHKKPTGMIRIHQMNSELSVLANFSQPEIVPISNITENVYINLTCSSIHGYPEPKKMSVLLRTKNSTIEYDGVMQKSQDNVTELYDVSISLSVSFPDVTSNMTIFCILETDKTRLLSSPFSIELED |  |  |  |  | 0.0334
4 | human B7.2 ectodomain fused to human Fc (Fc fusion) LKIQAYFNETADLPCQFANSQNQSLSELVVFWQDQENLVLNEVYLGKEKFDSVHSKYMGRTSFDSDSWTLRLHNLQIKDKGLYQCIIHHKKPTGMIRIHQMNSELSVLANFSQPEIVPISNITENVYINLTCSSIHGYPEPKKMSVLLRTKNSTIEYDGVMQKSQDNVTELYDVSISLSVSFPDVTSNMTIFCILETDKTRLLSSPFSIELED | 9.75e-06 |  |  |  | 
5 | human B7.1 ectodomain fused to human Fc (Fc fusion) VIHVTKEVKEVATLSCGHNVSVEELAQTRIYWQKEKKMVLTMMSGDMNIWPEYKNRTIFDITNNLSIVILALRPSDEGTYECVVLKYEKDAFKREHLAEVTLSVKADFPTPSISDFEIPTSNIRRIICSTSGGFPEPHLSWLENGEELNAINTTVSQDPETELYAVSSKLDFNMTTNHSFMCLIKYGHLRVNQTFNWNTT | 2.91e-05 |  |  |  | 
6 | human B7.1 ectodomain, His-tagged (domain or fragment) VIHVTKEVKEVATLSCGHNVSVEELAQTRIYWQKEKKMVLTMMSGDMNIWPEYKNRTIFDITNNLSIVILALRPSDEGTYECVVLKYEKDAFKREHLAEVTLSVKADFPTPSISDFEIPTSNIRRIICSTSGGFPEPHLSWLENGEELNAINTTVSQDPETELYAVSSKLDFNMTTNHSFMCLIKYGHLRVNQTFNWNTT |  |  |  |  | 0.00676
